Consider 16 molecules from patent US20180057604A1 (Genentech, published 2018).

B1: 15G11 (antibody, V domains shown)
VH: QVQLQQPGAELVKPGASVKLSCKASGYTFTSYWMHWVKQRPGQGLEWIGEINPTNGRTNYIEKFKSKATLTVDKSSSTAYMQLSSLTSEDSAVYYCARGTRAYHYWGQGTSVTVSS
VL: DIQMTQSPASLSVSVGETVTITCRASDNLYSNLAWYQQKQGKSPQLLVYDATNLADGVPSRFSGSGSGTQYSLKINSLQSEDFGTYYCQHFWGTPLTFGAGTKLELK
notes: Mouse hybridoma antibody; also called clone 15G11
B2: 7A4 (antibody, V domains shown)
VH: QVQLQQSGPELVRPGVSVKISCKGSGYTFTDYAMHWVKQSHAKSLEWIGGISTYFGRTNYNQKFKGRATMTVDKSSSTAYMELARLTSEDSALYYCARGLSGNYVMDYWGQGTSVTVSS
VL: DIVLTQSPASLAVSLGQRATISCRASESVDDYGNSFMHWYQQKPGQPPKLLIYRASNLESGIPARFSGSGSRTDFTLTINPVEADDVATYYCQQSNEAPPTFGGGTKLEIR
notes: also called clone 7A4
B3: 7A4 HC/8A2 LC (antibody, V domains shown)
VH: B2 VH
VL: B2 VL with D31S, A98G, R111K
notes: chimeric IgG; also called ch7A4/8A2
B4: 16F6 (antibody, V domains shown)
VH: DVQLQESGPGLVKPSQSLSLTCTVTGNSITSEYAWNWIRQFPGNKLEWMGYISYSGTTSYNPSLKSRISITRDTSKNQLFLQLNSVTTEDTATYFCARYGYGNPATRYFDVWGAGTTVTVSS
VL: DVQITQSPSYLTASPGETITINCRASKSISKYLAWYQEKPGKTNKLLIYSGSTLQSGIPSRFSGSGSGTDFTLTISNLEPEDFAMYYCQQHNEYPWTFGGGTKLEIK
notes: Mouse hybridoma antibody; also called clone 16F6
B5: 16G4 (antibody, V domains shown)
VH: B1 VH with T54S, I61N, K63T
VL: B1 VL with L29I, D50A, A51V, T85S
notes: Mouse hybridoma antibody; also called clone 16G4
B6: 10D11 (antibody, V domains shown)
VH: QVQLQQSGPELVRPGVAVKISCKGSGYKFIDYGMHWVKQSHTKSLQWIGVISPYSGKTNYSQKFKGKATMTVDKSSSTAYMELARLTSEDSAIYYCARGLSGNFVMDFWGQGTSVTVSS
VL: B2 VL with D31S, N34P, Q94H, A98D, K107R, R111K
notes: Mouse hybridoma antibody; also called clone 10D11
B7: 8A2 (antibody, V domains shown)
VH: B2 VH with A33G, G50V, T53P, F55S, K63N, R67K, M81L, L93I, M106V
VL: B2 VL with D31S, A98G, R111K
notes: Mouse hybridoma antibody; also called clone 8A2
B8: 7G7 (antibody, V domains shown)
VH: QVQLQQPGSELVRPGASVKLSCKASGYTFTSYWMHWVKQRHGQGLEWIGNIYPGSGSTKYDERFKSKGTLTVDTSSSTAYMHLSSLTSEDSAVYYCTRGGYDSRAWFAYWGQGTLVTVSA
VL: DIVLTQSPASLAVSLGQRATISCRARQSVSTSSYSFMHWYRQKAGQPPKLLIKYASIQESGVPARFSGSGSGTDFTLNILPVEEEDTATYYCQHTWEIPFTFGSGTKLEIK
notes: Mouse hybridoma antibody; also called clone 7G7
B9: 1B12 (antibody, V domains shown)
VH: EVKLVESGGGLVQPGGFLKLSCATSGFTFSDYYMYWVRQTPEKRLEWVASISNGGDNTYYPDTVKGRFTISRDNAKNTLYLQMSRLKSEDTAMYYCARQGALYDGYYRGAMDYWGQGTSVTVSS
VL: QIVLTQSPAIMSASLGGRVTMTCTTSSSVPSSYFHWYQQKPGSSPKLWIYSTSNLASGVPARFSGSGSGTSYSLTISSMEAEDAATYYCHQYHRSPFTFGSGTKLEIK
notes: Mouse hybridoma antibody; also called clone 1B12
B10: 13D4 (antibody, V domains shown)
VH: QVQLQQSGAELMKPGASVKISCKAAGYTFSNYWIEWVKQRPGHGLEWIGEILPGSGSTKYNEKFKGKATFTADTSSNTAYMQLSSLTSEDSAVYYCARRGGYGYDGEFAYWGQGTLVTVSA
VL: DIQMTQTTSSLSASLGDRVTINCRAGQDITNYLNWFQQKPDGTVKLLIYYTSRLHSGVPSRFSGSGSGTDYSLTITNLEQEDIATYFCQQANTLPYTFGGGTKLEIK
notes: Mouse hybridoma antibody; also called clone 13D4
B11: H90A (antibody, V domains shown)
VH: EVQLVQSGAEVKKPGASVKVSCKASGYTFTSYWMHWVRQAPGQRLEWIGEINPTNGRTNYIEKFKSRATLTVDKSASTAYMELSSLRSEDTAVYYCARGTRAYHYWGQGTMVTVSS
VL: DIQMTQSPSSLSASVGDRVTITCRASDNLYSNLAWYQQKPGKSPKLLVYDATNLADGVPSRFSGSGSGTDYTLTISSLQPEDFATYYCQAFWGTPLTFGQGTKVEIK
notes: also called 15G11.v5 H90A (CDR-L3) IgG
B12: H101A (antibody, V domains shown)
VH: B11 VH with H104A
VL: B11 VL with A90H
notes: also called 15G11.v5 H101A (CDR-H3) IgG; copies: 2 + 2
B13: T97A (antibody, V domains shown)
VH: B11 VH
VL: B11 VL with A90H, T97A
notes: also called 15G11.v5 T97A (CDR-L3) IgG
B14: T94A (antibody, V domains shown)
VH: B11 VH
VL: B11 VL with A90H, T94A
notes: also called 15G11.v5 T94A (CDR-L3) IgG
B15: L96A (antibody, V domains shown)
VH: B11 VH
VL: B11 VL with A90H, L96A
notes: also called 15G11.v5 L96A (CDR-L3) IgG
B16: 5930 (antibody, V domains shown)
VH: QVQLVQSGAEVKKPGSSVKVSCKASGGTLSGYAISWVRQAPGQGLEWMGNIIPGFGTANYAQKSQGRVTITADESTSTAYMELSSLRSEDTAVYYCARSGGTRYGMLDVWGQGTMVTVSS
VL: EIVMTQSPATLSVSPGERATLSCRASQSVGSNLAWYQQKPGQAPRLLIYGASTRATGIPARFSGSGSGTEFTLTISSLQSEDFAVYYCQQLYTWPPRTFGGGTKVEIK
notes: anti-BACE1 IgG

The Kd is a measure of binding affinity in units of concentration. What is called EC50 is the concentration at which the effect is half-maximal. A lower EC50 goes with greater potency.

Residue numbers refer to the chain shown, from its start. Names and notes keep the numbering of the source.

T2 sequence (P02786 89-760 G142S): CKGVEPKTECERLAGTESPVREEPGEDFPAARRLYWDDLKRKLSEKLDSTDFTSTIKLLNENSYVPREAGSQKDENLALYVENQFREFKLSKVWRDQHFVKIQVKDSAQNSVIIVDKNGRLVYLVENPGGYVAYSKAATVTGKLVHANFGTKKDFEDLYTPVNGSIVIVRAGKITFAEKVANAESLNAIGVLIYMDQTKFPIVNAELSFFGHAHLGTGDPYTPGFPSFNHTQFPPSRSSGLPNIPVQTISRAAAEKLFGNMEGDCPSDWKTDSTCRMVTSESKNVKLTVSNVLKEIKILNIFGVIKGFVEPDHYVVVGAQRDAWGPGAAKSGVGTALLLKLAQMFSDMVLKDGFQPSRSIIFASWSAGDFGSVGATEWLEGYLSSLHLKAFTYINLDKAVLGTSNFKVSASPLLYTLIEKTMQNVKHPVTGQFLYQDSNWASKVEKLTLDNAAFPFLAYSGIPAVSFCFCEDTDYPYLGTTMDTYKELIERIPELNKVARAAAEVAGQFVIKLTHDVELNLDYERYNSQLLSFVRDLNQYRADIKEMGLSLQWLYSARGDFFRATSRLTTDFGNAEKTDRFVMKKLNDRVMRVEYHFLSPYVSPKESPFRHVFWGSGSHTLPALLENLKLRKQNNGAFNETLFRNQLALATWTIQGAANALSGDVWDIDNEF

The first test addresses T1, cyno TfR extracellular domain (analogous construct to human TfR ecd) (cynomolgus monkey, UniProt Q5RDH6 87-760 (Pongo abelii entry)).
T1 construct: also called cynoTfR ecd
T1 chain: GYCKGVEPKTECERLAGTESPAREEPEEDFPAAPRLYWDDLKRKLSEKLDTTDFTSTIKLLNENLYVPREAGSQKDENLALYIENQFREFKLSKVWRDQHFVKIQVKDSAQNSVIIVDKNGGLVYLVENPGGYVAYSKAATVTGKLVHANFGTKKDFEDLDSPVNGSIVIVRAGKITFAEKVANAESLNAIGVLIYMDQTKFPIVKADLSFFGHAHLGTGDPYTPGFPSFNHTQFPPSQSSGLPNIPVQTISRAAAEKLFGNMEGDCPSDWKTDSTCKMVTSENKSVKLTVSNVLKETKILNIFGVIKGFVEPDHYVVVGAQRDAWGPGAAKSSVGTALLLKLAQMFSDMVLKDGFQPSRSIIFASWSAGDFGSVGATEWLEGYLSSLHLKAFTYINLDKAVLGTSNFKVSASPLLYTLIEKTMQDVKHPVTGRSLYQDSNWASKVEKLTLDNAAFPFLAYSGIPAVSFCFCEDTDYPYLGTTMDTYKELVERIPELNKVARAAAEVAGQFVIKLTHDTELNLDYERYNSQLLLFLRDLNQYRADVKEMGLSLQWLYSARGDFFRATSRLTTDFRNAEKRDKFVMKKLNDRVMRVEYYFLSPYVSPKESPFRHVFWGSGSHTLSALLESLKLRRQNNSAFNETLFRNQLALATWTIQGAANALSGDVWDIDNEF
Put plainly: SPR, IgG.
Protocol: (§1) Antibody affinities were measured using surface plasmon resonance (“SPR”) (Biacore™, GE Healthcare). Anti-His antibody (Qiagen) was coupled onto four different flow cells of a BIACORE™ CM5 sensor chip (Biacore, Inc., Piscataway, N.J.) at between 6000 and 8000 RU. Immobilization was achieved by random coupling through amino groups using a protocol provided by the manufacturer. 10×HBS-P (Biacore, Inc., Piscataway, N.J.) was diluted in water and served as the dilution and running buffer. Purified human or cyno TfR was captured, followed by a 3-fold dilution series of IgG or Fab that was injected at a flow rate of 30 ml/min using the single cycle kinetics method. Affinity constants were determined using a simple 1:1 Langmuir binding model or using a steady state model when kₒₙ or koff was beyond the detection limit. The equilibrium dissociation constant (KD) was calculated as the ratio of association rate constant (kₒₙ) and dissociation rate constant (koff).
(§2) In both cases, the SPR experiments were performed as described above.
Regarding B1, binding was put at a Kd of 2.6 nM.

B2 yielded a Kd of 0.627 nM.

B3: the Kd came out at 0.925 nM.

The next test addresses T2, human TfR extracellular domain with N-terminal His tag (human, UniProt P02786 89-760).
T2 construct: Biotinylated in some assays; also called huTfR; HuTfR
The test is described as follows: SPR, IgG. For orientation: In SPR one partner is held on a chip, and binding of the other changes the refractive index at the surface.
Protocol: as §1, §2
For B1, the Kd stood at 0.992 nM.

B2 registered a Kd of 0.206 nM.

B3 yielded a Kd of 0.112 nM.

The target in the next test is T1, cyno TfR extracellular domain …. The test is described as follows: SPR, IgG. This is another data set of the same source.
Protocol: as §1
In turn, B4 came in with a Kd of 7.45 nM.

Regarding B1, the Kd stood at 2.6 nM.

In turn, B5 registered a Kd of 22.4 nM.

Molecule B2 displayed a Kd of 0.627 nM. This Kd is about 36-fold lower than that of the molecule before.

In turn, B6 showed an equilibrium dissociation constant (Kd) of 89.9 nM.

The molecule B3 returned a Kd of 0.925 nM.

The molecule B7 displayed a Kd of 0.904 nM.

Take B8: binding was put at a Kd of 262 nM.

Molecule B9 registered a Kd of 43.4 nM.

Take B10: the affinity, expressed as Kd, was 8.47 nM.

A further test addresses T2, human TfR extracellular domain with …. The test is described as follows: SPR, IgG. The source holds these as a separate data set.
Protocol: as §1
B4 gave a Kd of 2.07 nM.

Turning to B1, the Kd was found to be 0.992 nM. This Kd is about 2.1-fold lower than that of the molecule before.

In turn, B5 showed a dissociation constant (Kd) of 3.4 nM.

Molecule B2 showed a Kd of 0.206 nM.

In turn, B6 gave a Kd of 2.08 nM. This Kd lies about 10-fold higher than the previous one.

On to B3, for which binding was characterised by a dissociation constant (Kd) of 0.112 nM. Against the preceding molecule, the Kd is about 19-fold lower.

B7 registered a Kd of 0.179 nM. Against the preceding molecule, the Kd is about 1.6-fold higher.

B8 displayed a Kd of 45.7 nM.

B9 showed a Kd of 2.03 nM.

B10 registered a Kd of 9.5 nM.

A further test addresses T1, cyno TfR extracellular domain …. The test is described as follows: ELISA, IgG.
Protocol: (§3) Affinity variants were generated by making individual alanine substitutions in CDR-L3 or CDR-H3 using standard techniques. These variants were screened as IgG by ELISA and SPR to identify positions important for binding to human and cyno TfR; the monovalent affinity of selected variants as Fab was also determined. […] Plates were washed with PBS/0.05% Tween 20 and blocked using Superblock blocking buffer in PBS (Thermo Scientific, Hudson, N.H.). Supernatants containing expressed IgG were diluted serially 1:5 and added to the plate for 1 h. […] Plates were washed with PBS/0.05% Tween 20 and 1:1000 diluted HRP-Goat-anti kappa (Southern Biotech) was added the plate and incubated for 1 h at room temperature. Plates were washed with PBS/0.05% Tween 20 and detected using TMB substrate (BioFX Laboratories, Owings Mills).
Consider B11, for which the EC50 stood at 0.024 µg/mL.

The molecule B12 yielded an EC50 of 0.0216 µg/mL.

Turning to B13, a half-maximal effect (EC50) was put at 0.0157 µg/mL.

B14 displayed an EC50 of 0.0293 µg/mL.

Molecule B15 displayed an EC50 of 0.018 µg/mL. Compared with the last molecule, the EC50 is about 1.6-fold lower.

A further test concerns the target T2, human TfR extracellular domain with …. The test is described as follows: ELISA, IgG. On the technique in general: An ELISA detects its analyte on a solid surface through an enzyme-linked reagent.
Protocol: as §3
With B11, the midpoint of the response, the EC50, lay at 0.013 µg/mL.

For the molecule B12, the midpoint of the response, the EC50, lay at 0.0142 µg/mL. This EC50 and that of the molecule before are within 1.5-fold of each other.

B13: the midpoint of the response, the EC50, lay at 0.0134 µg/mL.

As for B14, a half-maximal effect (EC50) was put at 0.0168 µg/mL.

Take B15: the EC50 was found to be 0.0099 µg/mL.

The next test deals with BACE1 in primary mouse cortical neurons (mouse, UniProt P56818 46-501). The test is described as follows: cell-based or functional assay.
Sequence of BACE1 in primary mouse cortical neurons (P56818 46-501): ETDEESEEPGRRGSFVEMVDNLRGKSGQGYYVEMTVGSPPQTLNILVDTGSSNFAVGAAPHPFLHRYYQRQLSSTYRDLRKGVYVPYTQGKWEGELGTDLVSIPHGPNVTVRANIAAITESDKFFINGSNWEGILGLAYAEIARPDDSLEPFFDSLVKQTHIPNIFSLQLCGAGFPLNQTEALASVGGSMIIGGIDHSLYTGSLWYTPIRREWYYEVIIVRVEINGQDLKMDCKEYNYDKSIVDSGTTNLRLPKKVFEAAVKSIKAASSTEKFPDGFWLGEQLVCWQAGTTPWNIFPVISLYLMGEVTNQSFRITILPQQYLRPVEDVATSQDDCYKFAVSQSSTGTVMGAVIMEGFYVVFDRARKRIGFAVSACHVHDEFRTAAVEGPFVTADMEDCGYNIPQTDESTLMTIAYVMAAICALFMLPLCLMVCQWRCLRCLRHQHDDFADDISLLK
In the case of B16, the “IC50, Abeta x-40 in mouse cortical neurons” value stood at 7.52 nM and the “maximal % inhibition of Abeta x-40” value was 74%.

The target of another test is T3, murine BACE1 ECD.
T3 construct: analyte of the Octet assay (200 nM) and enzyme of the first short substrate assay
T3 sequence (single chain, as listed by the source limits assumed): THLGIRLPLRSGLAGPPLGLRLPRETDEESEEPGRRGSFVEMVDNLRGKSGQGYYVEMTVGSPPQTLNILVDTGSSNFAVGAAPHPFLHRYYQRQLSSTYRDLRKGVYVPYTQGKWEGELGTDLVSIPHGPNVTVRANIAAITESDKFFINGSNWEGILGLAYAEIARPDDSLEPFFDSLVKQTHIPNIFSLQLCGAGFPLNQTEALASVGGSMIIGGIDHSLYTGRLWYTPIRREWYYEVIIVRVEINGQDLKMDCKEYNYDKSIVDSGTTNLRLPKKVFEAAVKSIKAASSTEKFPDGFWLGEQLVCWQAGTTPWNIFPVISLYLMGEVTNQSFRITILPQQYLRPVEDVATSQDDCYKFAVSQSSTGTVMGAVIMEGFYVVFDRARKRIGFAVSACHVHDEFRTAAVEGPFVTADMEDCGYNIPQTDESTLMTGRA
Put plainly: Octet, pH 5.0.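 Further: antibodies captured on anti-human capture sensor tips, dissociation monitored in PBS with BSA buffer, kinetics fitted with a one-to-one binding model.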 A general note: Biolayer interferometry detects binding as a change in optical thickness at a sensor tip.
Protocol: (§4) Anti-BACE1 antibodies were loaded onto anti-human capture (AHC) sensors (tips) followed by 60 seconds baseline in assay buffer. […] Tips were transferred to assay buffer for 5 minutes, 30 minutes, or 120 minutes depending on the off-rate, for off-rate measurement. Assay buffer was either PBS+0.1% BSA, pH 7.5; or PBS+0.1% BSA, pH 5.0. Kinetics were analyzed using a 1:1 binding model.
B16 returned a Kd of under 0.29 nM.

In the next test the target is T4, human BACE1 ECD.
T4 construct: analyte of the Octet assay (200 nM) and enzyme of the first short substrate assay; also called human BACE1 extracellular domain
T4 sequence (single chain, as listed by the source limits assumed): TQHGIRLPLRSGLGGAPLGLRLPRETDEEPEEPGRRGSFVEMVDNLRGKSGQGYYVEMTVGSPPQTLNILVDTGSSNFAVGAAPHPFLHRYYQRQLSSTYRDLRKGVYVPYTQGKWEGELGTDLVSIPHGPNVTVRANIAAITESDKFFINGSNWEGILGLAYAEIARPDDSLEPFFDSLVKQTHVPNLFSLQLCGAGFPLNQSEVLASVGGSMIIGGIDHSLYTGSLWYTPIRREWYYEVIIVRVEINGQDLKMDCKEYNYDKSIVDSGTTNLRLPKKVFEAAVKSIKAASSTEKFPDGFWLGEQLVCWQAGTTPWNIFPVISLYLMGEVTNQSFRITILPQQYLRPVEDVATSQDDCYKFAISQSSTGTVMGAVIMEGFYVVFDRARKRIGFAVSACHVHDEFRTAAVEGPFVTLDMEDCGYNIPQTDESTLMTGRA
Put plainly: Octet, pH 5.0.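 Further: antibodies captured on anti-human capture sensor tips, dissociation monitored in PBS with BSA buffer, kinetics fitted with a one-to-one binding model.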
Protocol: as §4
Molecule B16 gave a Kd of under 0.23 nM.

For another test, the target named is T5, human BACE1 (R&D Systems) (human, UniProt P56817).
T5 construct: recombinant, commercial (R&D Systems)
T5 sequence (P56817 22-457 limits assumed): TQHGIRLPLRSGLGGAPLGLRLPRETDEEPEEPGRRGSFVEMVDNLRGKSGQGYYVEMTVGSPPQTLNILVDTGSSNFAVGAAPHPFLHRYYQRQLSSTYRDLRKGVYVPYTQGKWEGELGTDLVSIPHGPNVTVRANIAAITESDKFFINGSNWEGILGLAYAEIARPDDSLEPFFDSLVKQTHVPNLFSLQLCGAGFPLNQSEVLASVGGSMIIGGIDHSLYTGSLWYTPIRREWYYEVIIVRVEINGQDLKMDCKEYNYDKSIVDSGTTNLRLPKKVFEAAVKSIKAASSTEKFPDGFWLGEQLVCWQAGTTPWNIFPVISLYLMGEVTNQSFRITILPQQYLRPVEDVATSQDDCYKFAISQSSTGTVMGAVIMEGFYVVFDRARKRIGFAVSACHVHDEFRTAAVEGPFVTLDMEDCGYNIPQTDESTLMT
Put plainly: SPR (Biacore).
Protocol: Binding affinities of certain anti-BACE1 IgGs were measured by surface plasmon resonance (SRP) using a BIAcore™-T100 instrument. […] Association rates (kon) and dissociation rates (koff) were calculated using a simple one-to-one Langmuir binding model (BIAcore Evaluation Software version 3.2). The equilibrium dissociation constant (KD) was calculated as the ratio koff/kon.
For the molecule B16, the affinity, expressed as Kd, was 6.41 nM.

The next test addresses T1, cyno TfR extracellular domain …. The test is described as follows: SPR, IgG. The source holds these as a separate data set.
Protocol: as §1, §2
B4 registered a Kd of 7.45 nM.

For another test, the target named is T2, human TfR extracellular domain with …. The test is described as follows: SPR, IgG. The source holds these as a separate data set.
Protocol: as §1, §2
In the case of B4, the Kd came out at 2.07 nM.

Another test concerns the target T3, murine BACE1 ECD. The test is described as follows: Octet, pH 7.5.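 Further: antibodies captured on anti-human capture biosensor tips, dissociation followed in PBS with BSA buffer, kinetics fitted with a one-to-one binding model.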
Protocol: as §4
Molecule B16 came in with a Kd of under 0.3 nM.

Another test concerns the target T4, human BACE1 ECD. The test is described as follows: Octet, pH 7.5.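 Further: antibodies captured on anti-human capture biosensor tips, dissociation followed in PBS with BSA buffer, kinetics fitted with a one-to-one binding model.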
Protocol: as §4
Molecule B16 came in with a Kd of under 0.29 nM.
